# Test results published in patent US20240245805A1 (Orna Therapeutics, Inc., priority 2020, published 2024).
# B1: EV K (nucleic acid)
# chain: TCAGCCTGACGCAAGTGCCTCCATTGGAGTCTCTCCAAGCCCTCCGGGGCTTGGAGGGCGCCGACCCCCTGCCTAGGGGGAGCCCACGACACGGCTGGAGTCCATTGGCACACCGCAGCCACGATTCAAGCCAGAATTGAAAGCGGGAAGCACTTCTGTCTCCCCGGTGTGGATCATACGCTGTACCCACGGCGAAAAGTGAAGCATCGTTACCCGACTCGGTACTTCGAGAAGCCCAGTACAGTTGTGGATCTCTGCAGGGTATACGCTCAGCGTGACCCCTACGTAGTTCCTTGAGATGGCTGAGAGAACACCCCACGGGCGACCGTGTCTCTCGGCGCGTGGCTCAAGGCCGGGCCTTCAGTGGCTCGGTGCCTTGCAGAGTGAAGCCTCCGAACAGCCTATTGAGCTACCGTTTAGCCTCCGCCCTCTTGAATGCGGCTAATCCTAACCATGGAGCGCCCGCCCACAGTCCAGTGGGTAGAGCGTCGTAACGCGCAAGTCCGTGGCGGAACCGACTACTTTAGAGTGGCGTGTTTCCAATTTATCCTTTATAAAGTTGCTTATGGTGACACCACAAGAGATCCACGATTTCTTGTTTCTTATCACTGAGACACAAGTCATATTCATCAATCTTTATTGCGGAATTAACTTGGTGCGTCCAAACACATCAGC
# modifications: lipid formulation; Enterovirus K
# B2: HRVA73 (nucleic acid, listed as Rhinovirus sp.)
# chain: TTAAAACTGGGTTTGGGTTGTTCCCACCCAAACCACCCACGCGGTGTTGTACACTGTTATTCCGGTAACCTTGTACGCCAGTTTTATATCCCTTCCCCCCCTTGTAACTTAGAAGACATGCGAATCGACCAATAGCAGGCAATCAACCAGATTGTCACCGGTCAAGCACTTCTGTTTCCCCGGCTCTCGTTGATATGCTCCAACAGGGCAAAAACAATTGGAGTCGTTACCCGCAAGATGCCTACGCAAAACCTAGTAGCATCTTCGAAGATTTTTGGTTGGTCGCTCAGTTGCTACCCCAGCAATAGACCTGGCAGATGAGGCTAGAAATACCCCACTGGTGACAGTGTTCTAGCCTGCGTGGCTGCCTGCACACCCACACGGGTGTGAAGCCAAAGATTGGACAAGGTGTGAAGAGTCACGTGTGCTCATCTTGAGTCCTCCGGCCCCTGAATGCGGCTAACCTTAACCCCGTAGCCATTGCTCGCAATCCAGCGAGTATATGGTCGTAATGAGTAATTACGGGATGGGACCGACTACTTTGGGTGTCCGTGTTTCACTTTTTACTTATCAATTTGCTTATGGTGACAATATATATAGATATATATTGACACC
# modifications: lipid formulation
# B3: HRVC3 QPM (nucleic acid, listed as Rhinovirus sp.)
# chain: TTAAAGCTGGATCATGGTTGTTCCCACCATGATTACCCACGCGGTGCAGTGGTCTTGTATTACGGTACATTTCCATACCAGTTTTATACACCCCACCCCGAAACTCATAGAAGTTTGTACACAATGACCAATAGGTGGTGGCCATCCAGGTCGCTAATGGTCAAGCACTTCTGTTTCCCCGGCACCCTTGTATACGCTTCACCCGAGGCGAAAAATGAGGTTGTCGTTATCCGCAAAGTGCCTACGAAAAGCCTAGTAACACTTTGAAAACCCATGGTTGGTCGCTCAGCTGTTTACCCAACAGTAGACCTGGCAGATGAGGCTAGACATTCCCCACCAGCGATGGTGGTCTAGCCTGCGTGGCTGCCTGCACACCCTGCCGGGTGTGAAGCCAGAAAGTGGACAAGGTGTGAAGAGCCTATTGTGCTCACTTTGAGTCCTCCGGCCCCTGAATGTGGCTAACCCTAACCCCGTAGCTGTTGCATGTAACCCAACATGTATGCAGTCGTAATGGGCAACTATGGGATGGGACCAACTACTTTGGGTGTCCGTGTTTCCTGTTTTACTTTTTCATTGCTTATGGTGACAATTGTATCTGATACACTTGTTACC
# modifications: lipid formulation
# B4: EV D94 (nucleic acid, listed as Enterovirus sp.)
# chain: CGTGGCGGCCAGTACTCTGGTATCACGGTACCTTTGTACGCCTGTTTTATATCCCCTTCCCCCGCAACTTAGAAGAAAACAAATCAAGTTCACTAGGAGGGGGTACAAACCAGTACCACCACGAACAAGCACTTCTGTTTCCCCGGTGATGTCGTATAGACTGTAACCACGGTTGAAAACGATTGATCCGTTATCCGCTCTTGTACTTCGAAAAGCCCAGTATCACCTTGGAATCTTCGATGCGTTGCGCTCAGCACTCAACCCCAGAGTGTAGCTTAGGTCGATGAGTCTGGACACTCCTCACCGGCGACGGTGGTCCAGGCTGCGTTGGCGGCCTACCTGTGGTCCAAAGCCACAGGACGCTAGTTGTGAACAAGGTGTGAAGAGCCTATTGAGCTACAAGAGAATCCTCCGGCCCCTGAATGCGGCTAATCCTAACCACGGAGCAAGGGTACACAAACCAGTGTATATCTTGTCGTAACGCGCAAGTCTGTGGCGGAACCGACTACTTTGGGTGTCCGTGTTTCCTTTTGTTTTTATCATGGCTGCTTATGGTGACAATCTAAGATTGTTATCATATAGCTGTTGGATTGGCCATCCGGTAATTTATTGAGATTTGAGCATTTGCTTGTTTCTTCAACAATTTCACCTATTCATTGCATTTCAGCAGTCAAA
# modifications: lipid formulation
# B5: EV I (nucleic acid)
# chain: TTAGTACTTTCTCACGGGGATAGTGGTATCCCTCCCTAGTAATTTAGAAGACTTGAAAAACCGACCAATAGGCACCTCGCATCCAGCGGGGTAAAGGTCAAGCACTTCTGTTTCCCCGGGTCGAGTAGCGATAGACTGTGCCCACGGTCGAAGGTGAAACAACCCGTTATCCGACTTTGTACTTCGGGAAGCCTAGTACCACCAAAGATTATGCTTGGGGTTTCGCTCAGCACGACCCTGGTGTAGATCAGGCCGATGGATCACCGCATTCCTCACAGGCGACTGTGGCGGTGGTCGCGTGGCAGCCTGCCGATGGGGCAACCCATCGGACGCCAAGCATATGACAGGGTGTGAAGAGCCTACTGAGCTACAAAGTATTCCTCCGGCCCCTGAATGCGGCTAATCCCAACCACGGAGCATTTGCTACCAAACCAGGTAGTGGAATGTCGTAACGGGTAACTCTGTGGCGGAACCGACTACTTTGGGTGTCCGTGTTTCCTTTTAATTTATCATTCTGTATATGGTGACAACTATAGTGCTATCTCGATTTGCATTACTATTGTTGAGATTAAAACTTTATTACATTGTTGCATTTTACCCTTTGAGTGAGTTTTCACCTGAACAGATTAATTTACTCATCCTGTTTATATATTACAAGCAGAAATACTTGCAAAG
# modifications: lipid formulation; Enterovirus I
# B6: EV F1 BEV 261 (nucleic acid, listed as Enterovirus sp.)
# chain: GCAATGCTGCACCAGTGCACTGGTACGCTAGTACCTTTTCACGGAGTAGATGGTATCCCTTACCCCGGAACCTAGAAGATTGCACACAAACCGACCAATAGGCGCACCGCATCCAGCCGTGCAGCGGTCAAGCACTTCTGTCTCCCCGGTCTGTAAAGATCGTTATCCGCCCGACCCACTACGAAAAGCCTAGTAACTGGCCAAGTGAACGCGAAGTTGCGCTCCGCCACAACCCCAGTGGTAGCTCTGGAAGATGGGGCTCGCACCACCCCCGTGGTAACACGGTTGCCTGCCCGCGTGTGCTTCCGGGTTCGGTCTCGTGCCGTTCACTTCAACTTCACGCAACCAGCCAAGAGCCTATTGTGCTGGGACGGTTTTCCTCCGGGGCCGTGAATGCTGCTAATCCCAACCTCCGAGCGTGTGCGCACAATCCAGTGTTGCTACGTCGTAACGCGTAAGTTGGAGGCGGAACAGACTACTTTCGGTACCCCGTGTTTCCTCTCATTTTATTTAATATTTTATGGTGACAATTGTTGAGATTTGCGCTCTTGCAACGTTGCCATTGAATATTGGCTTATACTATTTGGTTGCCTTTTACAAAACCTCTGATATACCCAGTTCTTACATTGATCTGCTTGTTTTTCTCAATTTGAAGTATAGACTACAAATAGCAAA
# modifications: lipid formulation
# B7: EV J 1631 (nucleic acid, listed as Enterovirus sp.)
# chain: CACCCTGAGGGCCCACGTGGCGTAGTACTCTGGTATCAAGGTACCTTTGTACGCCTATTTTATTTCCCTTCCCCCACAGTAACTTAGAAGCTTATCTCATAGTTCAACAGTAGGGTCACTAACCAAGTGGCTCAGCGAACAAGCACTTCTGTTTCCCCGGTCCTAGTACCTGTGAAGCTGTACCCACGGCGGAAGGGGAAAAAGATCGTTATCCGGCCCCCTACTTCGGAAAGCCTAGTAACACCATTGAAGCAATCGAGTGTTGCGCTCAGCACAGTAACCCCTGTGTAGCTTTGGTTGATGAGTCTGGGCACTCCCCACTGGCGACAGCGGCCCAGGCTGCGTTGGCGGCCAACCGACTCGGGCAACCGGGTCGGACGCTCGTTTGTGGACATGGTGTGAAGAGCCTACTGAGCTAGAGGGTAGTCCTCCGGCCCCTGAATGCGGATAATCCTAACCCCGGAGCACCCACACTCAATCCAGAGTGCAGGATGTCGTAACGCGTAAGTCTGGGACGGAACCGACTACTTTGGGTGTCCGTGTTTCCTGTTTTACTTACTTTGGCTGCTTATGGTGACAATCTAGTGTTGTTACCATATAGCTATTGGATTGGCCATCCGGTGTTTTGAATTGTGTGTTTATACTAATTCTTTTACATATCACAGACAACCAAAT
# modifications: lipid formulation
# B8: HRVB27 (nucleic acid, listed as Rhinovirus sp.)
# chain: TTAAAACAGCGGATGGGTATCCCACCATCCGACCCACAGGGTGTAGTGCTCTGGTATTTTGTACCTTTGCACGCCTGTTTCCCCATTGTACCCCTCCTTAAATTTCCTCCCCAAGTAACGTTAGAAGTTTAAGGAAACAAATGTACAATAGGAAGCATCACATCCAGTGGTGTTATGTACAAGCACTTCTGTTTCCCCGGAGCGAGGTATAAGTGGTACCCACCGCCGAAAGCCTTTAACCGTTATCCGCCAATCAACTACGTAATGGCTAGTATTACCATGTTTGTGACTTGGTGTTCGATCAGGTGGTTCCCCCCACTAGTTTGGTCGATGAGGCTAGGAACTCCCCACGGGTGACCGTGTCCTAGCCTGCGTGGCGGCCAACCCAGCTTTTGCTGGGACGCCTTTTTACAGACATGGTGTGAAGACCTGCATGTGCTTGATTGTGAGTCCTCCGGCCCCTGAATGCGGCTAACCTTAACCCCGGAGCCTTGCAACATAATCCAATGTTGTTGAGGTCGTAATGAGTAATTCTGGGATGGGACCGACTACTTTGGGTGTCCGTGTTTCCTTTTATTCTTTATATTGTCTTATGGTCACAGCATATATAGCATATATACTGTGATC
# modifications: lipid formulation
# System: HEK293 cells
# Assay type: cell-based, human
# Settings: circular RNA encoding Gluc with the listed IRES (UTR truncated to 675 nt) transfected into HEK293 cells; supernatant after 24 hours
row,Molecule,Expression (luminescence from secreted Gluc protein)
1,B1,7.52E+07
2,B2,1.08E+08
3,B3,1.64E+07
4,B4,9.25E+07
5,B5,1.31E+08
6,B6,1.12E+07
7,B7,9.88E+07
8,B8,2.04E+08
